Assay [1] addresses hemagglutinin (HA) of H1N1 influenza A strain A/Almaty/32/1998, mature HA1/HA2 trimer (Influenza A virus H1N1, strain A/Almaty/32/1998). Nature of the assay: crystal structure.
The target of assay [2] is hemagglutinin (HA) of H1N1 influenza A strain A/Jiangsu/ALS1/2011, mature HA1/HA2 trimer (Influenza A virus H1N1, strain A/Jiangsu/ALS1/2011). Nature of the assay: crystal structure.

As usually defined, the stoichiometry N is a count of units in the complex or per binding partner. The substance “hemagglutinin (HA) of H1N1 influenza A strain A/Almaty/32/1998, mature HA1/HA2 trimer (natural protein)” returned a stoichiometry N in assay [1] of 3. For the substance “hemagglutinin (HA) of H1N1 influenza A strain A/Jiangsu/ALS1/2011, mature HA1/HA2 trimer (natural protein)”, the stoichiometry N in assay [2] turned out to be 3.

Values taken from paper PMC10140725 (Scientific Reports, 2023).
